From the supplement of paper PMC9112550, “Optimization of the antimicrobial peptide Bac7 by deep mutational scanning” (BMC Biology, 2022) come the findings set out here.
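Note: peptides expressed intracellularly from a pBAD plasmid library in pooled LB shake-flask culture, induced with 0.3% L-arabinose, DNA abundance read by NGS, three biological replicates, DESeq2 with apeglm shrinkage.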

The test system of this data set is Escherichia coli TOP10. The data set is described as follows: shrunken log2 fold change of peptide-encoding DNA abundance (4.5 h post-induction vs induction); higher = less antimicrobial activity (less host growth inhibition). Particulars: time post-induction: 4.5 h; library: site-saturation at positions 5, 18, 19, 20.
As to RRIRARPPRLPRPRPRPRFHPRP, the “shrunken log2 fold change” value was -0.0673.
RRIRHRPPRLPRPRPRPLKNPRP: the “shrunken log2 fold change” value was -0.273.
For RRIRWRPPRLPRPRPRPADKPRP the value was 0.141; for RRIRRRPPRLPRPRPRPCKCPRP, -0.01; for RRIRCRPPRLPRPRPRPERFPRP, 0.00138.
In the case of RRIRWRPPRLPRPRPRPFAEPRP, the “shrunken log2 fold change” value came to 0.801.
For RRIRGRPPRLPRPRPRPKEIPRP, the “shrunken log2 fold change” value stood at 0.57.
For the sequence RRIRPRPPRLPRPRPRPGYWPRP, the “shrunken log2 fold change” value stood at 0.278.
For the sequence RRIRQRPPRLPRPRPRPGHFPRP, the “shrunken log2 fold change” value is -0.0162.
Take RRIRVRPPRLPRPRPRPRVTPRP: the “shrunken log2 fold change” value is 0.274.
For RRIRSRPPRLPRPRPRPENLPRP, the “shrunken log2 fold change” value was 0.026.
Consider RRIRKRPPRLPRPRPRPDMDPRP, for which the “shrunken log2 fold change” value was 0.0224.
As to RRIRIRPPRLPRPRPRPVLHPRP, the “shrunken log2 fold change” value was -0.447.
For RRIRHRPPRLPRPRPRPSLVPRP the value was -0.264; for RRIRNRPPRLPRPRPRPMIDPRP, -0.0621.
On to RRIRVRPPRLPRPRPRPSMEPRP, for which the “shrunken log2 fold change” value is -0.159.
On to RRIRSRPPRLPRPRPRPLSHPRP, for which the “shrunken log2 fold change” value is -0.462.
RRIRWRPPRLPRPRPRPMMLPRP: the “shrunken log2 fold change” value amounted to 0.309.
For RRIRPRPPRLPRPRPRPQYNPRP the value was -0.742; for RRIRQRPPRLPRPRPRPEAEPRP, 0.302; for RRIRPRPPRLPRPRPRPRNDPRP, -0.479.
As to RRIRVRPPRLPRPRPRPQWRPRP, the “shrunken log2 fold change” value is -0.0106.
In the case of RRIRKRPPRLPRPRPRPMGWPRP, the “shrunken log2 fold change” value is 0.31.
As to RRIRIRPPRLPRPRPRPNVGPRP, the “shrunken log2 fold change” value worked out at 0.011.
In the case of RRIRFRPPRLPRPRPRPSEWPRP, the “shrunken log2 fold change” value was -0.028.
Take RRIRRRPPRLPRPRPRPAIVPRP: the “shrunken log2 fold change” value is 0.275.
As for RRIRKRPPRLPRPRPRPMFNPRP, the “shrunken log2 fold change” value was -0.0523.
To RRIRTRPPRLPRPRPRPSTHPRP belongs -0.575.
For the sequence RRIRIRPPRLPRPRPRPTYAPRP, the “shrunken log2 fold change” value is -0.612.
For RRIRWRPPRLPRPRPRPTWCPRP, the “shrunken log2 fold change” value amounted to 0.242.
For RRIRWRPPRLPRPRPRPPSPPRP, the “shrunken log2 fold change” value stood at 0.598.
For RRIRSRPPRLPRPRPRPQSPPRP the value was -0.0599; for RRIRCRPPRLPRPRPRPWFYPRP, -0.758.
In the case of RRIRMRPPRLPRPRPRPEIDPRP, the “shrunken log2 fold change” value stood at 3.19.
Regarding RRIRTRPPRLPRPRPRPACIPRP, the “shrunken log2 fold change” value amounted to 0.599.
Take RRIRDRPPRLPRPRPRPSAFPRP: the “shrunken log2 fold change” value is 0.124.
With RRIRNRPPRLPRPRPRPDCRPRP, the “shrunken log2 fold change” value is -0.119.
For the sequence RRIRNRPPRLPRPRPRPSQQPRP, the “shrunken log2 fold change” value is -0.111.
Consider RRIRGRPPRLPRPRPRPKKDPRP, for which the “shrunken log2 fold change” value was determined as 0.708.
Regarding RRIRFRPPRLPRPRPRPKDIPRP, the “shrunken log2 fold change” value is -0.676.
As for RRIRTRPPRLPRPRPRPIMRPRP, the “shrunken log2 fold change” value was found to be 0.25.
RRIRLRPPRLPRPRPRPVRNPRP: the “shrunken log2 fold change” value worked out at 0.0234.
For RRIRFRPPRLPRPRPRPARSPRP, the “shrunken log2 fold change” value came to 0.336.
To RRIRERPPRLPRPRPRPASPPRP belongs -0.165; to RRIRWRPPRLPRPRPRPLDPPRP, 0.0629.
For RRIRQRPPRLPRPRPRPMEYPRP, the “shrunken log2 fold change” value was -0.479.
For RRIRWRPPRLPRPRPRPGNAPRP, the “shrunken log2 fold change” value amounted to 0.146.
Consider RRIRFRPPRLPRPRPRPAVDPRP, for which the “shrunken log2 fold change” value came out at 0.43.
RRIRWRPPRLPRPRPRPQFYPRP: the “shrunken log2 fold change” value was -0.492.
Consider RRIRKRPPRLPRPRPRPIMRPRP, for which the “shrunken log2 fold change” value is -0.00968.
As for RRIRSRPPRLPRPRPRPALYPRP, the “shrunken log2 fold change” value is -0.124.
To RRIRARPPRLPRPRPRPCMKPRP belongs -0.167.
Regarding RRIRHRPPRLPRPRPRPKWKPRP, the “shrunken log2 fold change” value is 0.107.
On to RRIRPRPPRLPRPRPRPLKKPRP, for which the “shrunken log2 fold change” value stood at 0.295.
Regarding RRIRQRPPRLPRPRPRPGWRPRP, the “shrunken log2 fold change” value was determined as 2.71.
To RRIRWRPPRLPRPRPRPVPFPRP belongs 0.122; to RRIRMRPPRLPRPRPRPKWKPRP, 0.195; to RRIRGRPPRLPRPRPRPFKDPRP, -0.681.
For RRIRYRPPRLPRPRPRPMLCPRP the value was -0.0838.
For RRIRFRPPRLPRPRPRPSMWPRP the value was -0.579; for RRIRERPPRLPRPRPRPPPKPRP, 0.748.
In the case of RRIRKRPPRLPRPRPRPMDWPRP, the “shrunken log2 fold change” value stood at 0.256.
For RRIRKRPPRLPRPRPRPCSGPRP the value was 0.00663; for RRIRKRPPRLPRPRPRPTCTPRP, 0.314; for RRIRSRPPRLPRPRPRPEQKPRP, 0.0179.
With RRIRWRPPRLPRPRPRPDVCPRP, the “shrunken log2 fold change” value is -0.0101.
As to RRIRKRPPRLPRPRPRPMCTPRP, the “shrunken log2 fold change” value was -0.0805.
For RRIRSRPPRLPRPRPRPCCCPRP the value was -0.000964.
Regarding RRIRERPPRLPRPRPRPVSFPRP, the “shrunken log2 fold change” value was -0.0647.
For RRIRHRPPRLPRPRPRPEIHPRP, the “shrunken log2 fold change” value turned out to be 0.0389.
RRIRRRPPRLPRPRPRPQSEPRP: the “shrunken log2 fold change” value came to 0.0256.
For RRIRGRPPRLPRPRPRPHLQPRP, the “shrunken log2 fold change” value is 0.479.
Consider RRIRVRPPRLPRPRPRPKAEPRP, for which the “shrunken log2 fold change” value was -0.00229.
To RRIRVRPPRLPRPRPRPPMMPRP belongs -0.0474; to RRIRIRPPRLPRPRPRPATLPRP, -0.559.
With RRIRLRPPRLPRPRPRPGWYPRP, the “shrunken log2 fold change” value was found to be 0.354.
For RRIRMRPPRLPRPRPRPRQNPRP the value was 0.62; for RRIRNRPPRLPRPRPRPYYDPRP, -0.0248.
Regarding RRIRVRPPRLPRPRPRPWRIPRP, the “shrunken log2 fold change” value is -0.00931.
Take RRIRPRPPRLPRPRPRPVNSPRP: the “shrunken log2 fold change” value is -0.196.
RRIRWRPPRLPRPRPRPCTIPRP: the “shrunken log2 fold change” value was -0.138.
For RRIRKRPPRLPRPRPRPPSIPRP the value was 0.0697.
With RRIRIRPPRLPRPRPRPWDVPRP, the “shrunken log2 fold change” value was -0.468.
On to RRIRQRPPRLPRPRPRPEAFPRP, for which the “shrunken log2 fold change” value came to 0.127.
As for RRIRMRPPRLPRPRPRPDFAPRP, the “shrunken log2 fold change” value amounted to 0.0706.
On to RRIRSRPPRLPRPRPRPNSDPRP, for which the “shrunken log2 fold change” value is -0.0183.
Turning to RRIRWRPPRLPRPRPRPAHQPRP, the “shrunken log2 fold change” value came out at 0.176.
In the case of RRIRQRPPRLPRPRPRPSFTPRP, the “shrunken log2 fold change” value is -1.12.
As to RRIRHRPPRLPRPRPRPHSNPRP, the “shrunken log2 fold change” value is -0.167.
As for RRIRHRPPRLPRPRPRPDEMPRP, the “shrunken log2 fold change” value worked out at 0.0307.
With RRIRKRPPRLPRPRPRPWTRPRP, the “shrunken log2 fold change” value was -0.0844.
For RRIRHRPPRLPRPRPRPHQMPRP, the “shrunken log2 fold change” value was -0.0152.
For the sequence RRIRGRPPRLPRPRPRPEDEPRP, the “shrunken log2 fold change” value is 0.0631.
Turning to RRIRKRPPRLPRPRPRPDTTPRP, the “shrunken log2 fold change” value was 0.0419.
To RRIRARPPRLPRPRPRPQYCPRP belongs -0.0903.
To RRIRPRPPRLPRPRPRPKANPRP belongs 0.0243; to RRIRIRPPRLPRPRPRPFHTPRP, -0.235; to RRIRERPPRLPRPRPRPVEVPRP, -0.209.
Consider RRIRNRPPRLPRPRPRPRYIPRP, for which the “shrunken log2 fold change” value is -0.455.
Turning to RRIRFRPPRLPRPRPRPGPKPRP, the “shrunken log2 fold change” value came to 0.066.
Regarding RRIRMRPPRLPRPRPRPFRVPRP, the “shrunken log2 fold change” value is 0.22.
Regarding RRIRWRPPRLPRPRPRPYGGPRP, the “shrunken log2 fold change” value was -0.683.
For the sequence RRIRTRPPRLPRPRPRPSTSPRP, the “shrunken log2 fold change” value is -0.239.
On to RRIRYRPPRLPRPRPRPDMFPRP, for which the “shrunken log2 fold change” value is -0.0113.
For RRIRDRPPRLPRPRPRPWEDPRP the value was 0.0111.
For the sequence RRIRDRPPRLPRPRPRPATPPRP, the “shrunken log2 fold change” value amounted to 0.276.
For the sequence RRIRKRPPRLPRPRPRPHSRPRP, the “shrunken log2 fold change” value was 0.147.
Turning to RRIRARPPRLPRPRPRPMCHPRP, the “shrunken log2 fold change” value came to 0.294.
With RRIRSRPPRLPRPRPRPWSDPRP, the “shrunken log2 fold change” value was -0.164.
On to RRIRLRPPRLPRPRPRPMENPRP, for which the “shrunken log2 fold change” value is -0.105.
To RRIRPRPPRLPRPRPRPVWTPRP belongs 0.224; to RRIRCRPPRLPRPRPRPRRLPRP, 0.133; to RRIRCRPPRLPRPRPRPVKLPRP, -0.176.
RRIRKRPPRLPRPRPRPGMMPRP: the “shrunken log2 fold change” value was found to be 0.308.
For RRIRKRPPRLPRPRPRPETVPRP the value was 0.0854; for RRIRARPPRLPRPRPRPVVFPRP, 0.213; for RRIRNRPPRLPRPRPRPWFWPRP, 0.422.
Regarding RRIRLRPPRLPRPRPRPPEYPRP, the “shrunken log2 fold change” value was -0.26.
Turning to RRIRNRPPRLPRPRPRPDFYPRP, the “shrunken log2 fold change” value is -0.24.
In the case of RRIRDRPPRLPRPRPRPHIRPRP, the “shrunken log2 fold change” value came to 0.00704.
On to RRIRQRPPRLPRPRPRPVMDPRP, for which the “shrunken log2 fold change” value is -0.39.
For the sequence RRIRDRPPRLPRPRPRPGDAPRP, the “shrunken log2 fold change” value stood at 0.207.
In the case of RRIRIRPPRLPRPRPRPENAPRP, the “shrunken log2 fold change” value is -0.0916.
For RRIRPRPPRLPRPRPRPINPPRP the value was -0.714.
On to RRIRNRPPRLPRPRPRPQTSPRP, for which the “shrunken log2 fold change” value is -0.346.
